Experimental findings from PMC3778711, “The central role of mosquito cytochrome P450 CYP6Zs in insecticide detoxification revealed by functional expression and structural modelling” (Biochemical Journal, 2013) are described below.

What is called Km is the concentration of substrate that gives half-maximal velocity. The term kcat denotes the maximal rate divided by the concentration of active sites.

One data set has as its target T1, CYP6Z2 (AgCYP6Z2) (Anopheles gambiae, UniProt A8I285).
T1 construct: with NADPH--cytochrome P450 reductase
T1 sequence (A8I285 1-492): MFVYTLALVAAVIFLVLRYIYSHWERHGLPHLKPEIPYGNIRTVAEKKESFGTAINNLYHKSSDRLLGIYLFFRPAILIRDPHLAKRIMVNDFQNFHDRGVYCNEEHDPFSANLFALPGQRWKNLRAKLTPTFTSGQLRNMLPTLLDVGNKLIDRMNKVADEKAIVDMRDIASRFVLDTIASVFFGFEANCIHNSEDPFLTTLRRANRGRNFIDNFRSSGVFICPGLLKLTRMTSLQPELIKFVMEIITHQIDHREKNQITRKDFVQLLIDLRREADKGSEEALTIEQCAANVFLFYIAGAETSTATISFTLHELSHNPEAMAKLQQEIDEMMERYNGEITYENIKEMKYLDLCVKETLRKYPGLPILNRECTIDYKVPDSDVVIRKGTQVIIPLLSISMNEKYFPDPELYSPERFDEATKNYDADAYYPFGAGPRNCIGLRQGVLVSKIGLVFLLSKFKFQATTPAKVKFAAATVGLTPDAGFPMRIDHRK
T1 sequence (Q86QH5 1-679 partner): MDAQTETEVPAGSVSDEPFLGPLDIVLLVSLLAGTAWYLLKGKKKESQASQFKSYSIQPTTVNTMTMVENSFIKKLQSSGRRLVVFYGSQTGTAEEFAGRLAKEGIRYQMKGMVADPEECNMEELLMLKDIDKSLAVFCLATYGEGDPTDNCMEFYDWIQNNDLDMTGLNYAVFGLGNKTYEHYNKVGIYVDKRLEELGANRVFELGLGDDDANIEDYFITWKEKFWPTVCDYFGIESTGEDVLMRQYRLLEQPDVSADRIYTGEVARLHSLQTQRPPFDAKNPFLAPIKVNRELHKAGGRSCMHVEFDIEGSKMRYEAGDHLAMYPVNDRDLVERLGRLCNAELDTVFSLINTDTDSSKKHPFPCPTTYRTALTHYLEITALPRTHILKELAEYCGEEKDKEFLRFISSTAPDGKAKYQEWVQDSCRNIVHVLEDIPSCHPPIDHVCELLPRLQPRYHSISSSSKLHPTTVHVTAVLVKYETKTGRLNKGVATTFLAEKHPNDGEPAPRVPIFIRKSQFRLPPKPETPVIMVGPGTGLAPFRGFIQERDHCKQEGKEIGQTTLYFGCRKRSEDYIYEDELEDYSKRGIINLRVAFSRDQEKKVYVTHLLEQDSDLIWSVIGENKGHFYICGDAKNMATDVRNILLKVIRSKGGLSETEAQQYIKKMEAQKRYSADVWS
Briefly: reverse-phase HPLC, E. coli membranes. It counts as biochemical. The conditions noted are these: 10 μM substrate, 0.1 mM NADPH with regeneration system, 5 mM MgCl2, 30°C.

Substrate in data set [1]: CCCCCOc1ccc2nc3ccc(=O)cc-3oc2c1
Kind of data set: resorufin fluorescence, yeast microsomes. It counts as biochemical, Aedes aegypti. The conditions noted are these: apparent, 0.1 mM NADPH with regeneration system, 0.1 M phosphate pH 7.4, 30°C, 15 min. From the text:
(§1) resorufin fluorescence, yeast microsomes on CYP6Z8 (W(AeR)-CYP6Z8 microsomes; CYP6Z8v1)

Substrate in data set [2]: O=c1ccc2nc3ccc(OCc4ccccc4)cc3oc-2c1
Kind of data set: resorufin fluorescence, yeast microsomes. The class given is biochemical, Aedes aegypti. The note with it: apparent, 0.1 mM NADPH with regeneration system, 0.1 M phosphate pH 7.4, 30°C, 15 min.
Excerpt: as §1

Substrate in data set [3]: CCOc1ccc2nc3ccc(=O)cc-3oc2c1
Kind of data set: resorufin fluorescence, yeast microsomes. It counts as biochemical, Aedes aegypti. The note with it: apparent, 0.1 mM NADPH with regeneration system, 0.1 M phosphate pH 7.4, 30°C, 15 min.
Excerpt: as §1

Substrate in data set [4]: OCc1cccc(Oc2ccccc2)c1
Kind of data set: reverse-phase HPLC, yeast microsomes. It counts as biochemical, Aedes aegypti. The conditions noted are these: 0.1 mM NADPH with regeneration system, 5 mM MgCl2, 30°C.

Substrate in data set [5]: CCOc1ccc2ccc(=O)oc2c1
Kind of data set: 7-hydroxycoumarin fluorescence (O-de-ethylation), yeast microsomes. The class given is biochemical, Aedes aegypti. The note with it: apparent, 0.1 mM NADPH with regeneration system, 0.1 M phosphate pH 7.4, 30°C, 15 min. From the text:
7-hydroxycoumarin fluorescence (O-de-ethylation), yeast microsomes on CYP6Z8 (W(AeR)-CYP6Z8 microsomes; CYP6Z8v1)

For the molecule `OCc1cccc(Oc2ccccc2)c1` [PBAlc], the “reverse-phase HPLC, E. coli membranes” value on CYP6Z2 (AgCYP6Z2) was “demonstrated the ability of CYP6Z2 to metabolize both PBAlc and PBAld”.
For the molecule `O=Cc1cccc(Oc2ccccc2)c1` [PBAld], the “reverse-phase HPLC, E. coli membranes” value at CYP6Z2 (AgCYP6Z2) is “demonstrated the ability of CYP6Z2 to metabolize both PBAlc and PBAld”.

B1: CYP6Z8 (W(AeR)-CYP6Z8 microsomes; CYP6Z8v1) (Aedes aegypti) (protein)
chain: MFIYTFALFWLAVAFAIRYIYSYWDRNGLPSIKPHIPYGNLKTVANRTESFGVATCDLYWKSKDRLVGIYLFFRPAVLIRDAHLAQQIMTTDFSHFHDRGVFCNEEVDPFSANLFALAGKRWRNLRNKFTPLFTGGQLRCMMPTILNVGHKLQNVLEPAAKKQEVLEIRELVSRCVLDIIASVFFGFEANCINDPNDAFIQNLRELQYDGFFNNLRAAATFICPELLKLTRISSLSPEMIRFVTDIVTKQIEHREKNNVTRKDFIQLLIDLRREDANNNEATLGLEECAANVFLFYVAGSDTSTSAVAFTLHELTQNVETMEKLQTEIDEMLVKTSGELTYDGIKEMSYLDLCVKETLRKYPGLAILNRECTKSYAVPNSNIVLKKGTQVVIPLLAYGMDEKYFPEPDRYLPERFDKSTKNYDEKAFYPFGEGPRNCIAFRMGVMVSKICLVLLLSRFNFEATRGPKINFTPSTVALLPKGGIPVKISIR
notes: full-length, no protein modification; codon-optimised gene in S. cerevisiae W(AeR) with Ae. aegypti CPR integrated; microsomes; with NADPH--cytochrome P450 reductase
On to B1, for which the Michaelis-Menten constant (Km) in data set [1] came to 13.96 ± 3.14 µM; in data set [2], 0.13 ± 0.02 µM; in data set [3] it was 2.39 ± 0.28 µM; in data set [4] it was 15.1 ± 2.9 µM; in data set [5] it was 5.90 ± 0.90 µM. Also, the kcat in data set [1] turned out to be 0.00217 ± 0.00017 s⁻¹; in data set [2], 0.00162 ± 3.3e-05 s⁻¹; in data set [3], 0.0198 ± 0.00083 s⁻¹; in data set [4], 0.011 ± 0.0005 s⁻¹; in data set [5], 0.0163 ± 0.00067 s⁻¹.
